Data reported in patent US11098124B2, “CD31 shed as a molecular target for imaging of inflammation” (INSTITUT NATIONAL DE LA SANTE ET DE LA RECHERCHE MEDICALE …, priority 2016, dated 2021).
Entries after “also recorded” stand apart in the source; their conditions may differ. Where a SMILES comes first, the peptide text is derived from it. [ ]: non-standard residue; d: D form. The star is where a group is joined. ξ: configuration not given here. HYNIC = NNc1ccc(C(=O)*)cn1; PEG3 = NCCOCCOCCOCCC(=O)O; ξK = NCCCCC(N)C(=O)O

Tests used:
[1] = tested on: abdominal aorta aneurysm (AAA) rat model of vascular inflammation; test: SPECT/CT imaging in abdominal aorta aneurysm (AAA) model; assay type: in vivo; settings: for Pattern of biodistribution / blood clearance route (in words): AAA rat, 74 MBq i.v., SPECT/CT
Description: Rat model of vascular inflammation that has been set up at the laboratory: the experimental abdominal aorta aneurysm (AAA) induced by local infusion of elastase and followed by intravenous injection of a periodontal bacterium present in human AAA (Porphyromonas gingivalis) and known to induce AAA inflammation (Delbosc et al., 2011, PLoS ONE 6(4): e18679. doi:10.1371/journal.pone.0018679).
Immediately after intravenous injection via the penis vein of 74 MBq of radiolabelled HYNIC-P8RI (obtained using Tricine/EDDA), sequential whole-body acquisitions (every 10 minutes for the first hour) were performed with a hybrid SPECT/CT camera (NanoSPECT/CT, Bioscan Inc.) dedicated to small animals. 10. […] Results 1. Radiolabeling 6-Hydrazinopyridine-3-carboxylic acid (HYNIC) was coupled to the N-terminal amino-acid of the P8RI peptide via a 3(PEG) spacer to obtain HYNIC-P8RI. HYNIC-P8RI was then labeled at high specific activities (>71 GBq/μmol) using tricine, EDDA or Tricine/EDDA as coligands. The tricine/EDDA exchange labeling strategy was chosen because of high labeling yield and resulting in a single major specie as analyzed by HPLC (see FIG. 1).

[2] = 37° C.
Description: (§1) A Dionex Ultimate 3000 system coupled to a Berthold radiometric detector was used for RP-HPLC analysis. A ACE 3 C18, 3μ, 100 Å, 150×4.6 mm column, at a flow rate of 1 mL/min and with UV detection at 220 nm, was employed with the following mobile phases, A: 0.1% TFA/water), B Acetonitrile (ACN). Gradient was: 0-2 min 23% B, 2-20 min 23-50% B, 20-23 min 50-100% B, 23-25 min 100-23% B, 25-28 min 23% B. 2.2 Thin Layer Chromatography TLC was performed using a radiochromatogaph (MiniGita, Raytest, Germany). Stationary phase was silica gel (ITLC-SG, Agilent technologies, USA) and different mobile phases were employed. MEK was used to determine the amount of free ^99mTcO4^− (Rf=1), Anticoagulant Citrate Dextrose Solution (ACD-A, Baxter International, USA) to determine non-peptide-bound ^99mTc-coligands and ^99mTcO4^− (Rf=1), 60% ACN for ^99mTc-colloid (Rf=0). […] In Vitro Stability Study Stability of ^99mTc complexes was assessed in fresh human plasma at 37° C. after 0 min, 30 min, 1 hour, 2 hours and 4 hours of incubation at a concentration of 100 μmol/mL. […] Supernatants were collected and filtered (Millex-GV 0.22 μm PVDF, Merck Millipore, Germany) then assessed by radio-HPLC. […] After one hour, rat was sacrificed and urine was directly collected from the bladder using a syringe and analyzed by radio-HPLC after a 0.22 μm filtration (Millex-GV 0.22 μm PVDF, Merck Millipore, Germany). […]

plasma proteins = test: in vitro; settings: human, fresh human plasma
Description: as §1

[3] = male wistar rat, 74 MBq, urine from bladder 1 hour after injection; listed as [99mTc]EDDA/HYNIC-P8RI
Description: as §1

CC(C)C[C@@H](NC(=O)[C@@H](C)NC(=O)[C@H]1CCCN1C(=O)[C@@H](Cc1c[nH]c2ccccc12)NC(=O)C(CCCCN)NC(=O)CCOCCOCCOCCNC(=O)c1ccc(NN)nc1)C(=O)N[C@H](Cc1ccccc1)C(=O)N[C@@H](C(=O)N[C@H](CCCNC(=N)N)C(=O)O)C(C)C (stereo partly drawn) [99mTc-HYNIC-P8RI, metal not drawn] ({HYNIC-PEG3}-[ξK][dW][dP][dA][dL][dF][dV][dR]-OH)
Pattern of biodistribution / blood clearance route (in words) [1]: almost exclusive renal uptake and excretion | Pattern of biodistribution / blood clearance route (in words) ([1]; listed as [99mTc]EDDA/HYNIC-P8RI): tracer elimination via kidneys; also recorded: almost exclusively renal | Blood clearance rate (in words) ([1]; in vivo, rat): rapid blood clearance | Time of peak activity in kidneys and bladder after injection ([1]; rat, i.v. injection): 1 h | RCP (radiochemical purity) after incubation in human plasma ([2]; 4 h of incubation, tricine/EDDA coligands): > 89% | In vitro stability in human plasma (in words) ([2]; up to 4 h, radio-HPLC, listed as [99mTc]EDDA/HYNIC-P8RI): no significant release of degraded radiolabelled peptide | fraction unbound at 4 h (plasma proteins): > 0.95 | In vivo stability: species excreted in rat urine by radio-HPLC (in words) [3]: unaltered form of the peptide
